Experimental data reported in patent publication US20230346967A1 (published 2023).

How the values were obtained:
[1] = biological target: T1, recombinant human TfR1 (human, UniProt P02786 89-760); test: printed: DMPK oligo conjugate binding to hTfR1
T1 construct: also called hTfR1; huTfR1

[2] = biological target: T2, recombinant human TfR2 (human, UniProt Q9UP52 105-801, limits assumed); test: SPR
T2 construct: also called hTfR2; transferrin receptor 2
T2 sequence (looked up): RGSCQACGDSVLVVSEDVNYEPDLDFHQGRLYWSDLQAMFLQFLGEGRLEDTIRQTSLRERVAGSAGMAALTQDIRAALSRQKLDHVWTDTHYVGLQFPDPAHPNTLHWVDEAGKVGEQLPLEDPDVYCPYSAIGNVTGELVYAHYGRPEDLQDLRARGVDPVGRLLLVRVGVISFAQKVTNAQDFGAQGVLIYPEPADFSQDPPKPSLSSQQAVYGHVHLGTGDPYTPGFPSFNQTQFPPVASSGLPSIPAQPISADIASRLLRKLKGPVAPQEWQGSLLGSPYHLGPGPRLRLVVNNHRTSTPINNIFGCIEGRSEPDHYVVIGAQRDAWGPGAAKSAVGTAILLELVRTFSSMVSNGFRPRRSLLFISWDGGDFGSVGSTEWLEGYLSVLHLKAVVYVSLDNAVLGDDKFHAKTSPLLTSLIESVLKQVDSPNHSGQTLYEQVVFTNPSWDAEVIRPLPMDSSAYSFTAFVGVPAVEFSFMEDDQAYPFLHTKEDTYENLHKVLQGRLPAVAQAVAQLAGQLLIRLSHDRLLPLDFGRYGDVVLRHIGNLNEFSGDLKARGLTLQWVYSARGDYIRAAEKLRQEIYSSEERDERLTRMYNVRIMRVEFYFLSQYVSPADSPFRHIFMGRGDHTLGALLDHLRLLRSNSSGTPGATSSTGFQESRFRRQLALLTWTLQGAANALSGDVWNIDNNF

[3] = biological target: recombinant mouse TfR1 (mouse, UniProt Q62351 89-763); test: ELISA, plates precoated with recombinant TfR1
Chain of recombinant mouse TfR1 (Q62351 89-763 limits assumed): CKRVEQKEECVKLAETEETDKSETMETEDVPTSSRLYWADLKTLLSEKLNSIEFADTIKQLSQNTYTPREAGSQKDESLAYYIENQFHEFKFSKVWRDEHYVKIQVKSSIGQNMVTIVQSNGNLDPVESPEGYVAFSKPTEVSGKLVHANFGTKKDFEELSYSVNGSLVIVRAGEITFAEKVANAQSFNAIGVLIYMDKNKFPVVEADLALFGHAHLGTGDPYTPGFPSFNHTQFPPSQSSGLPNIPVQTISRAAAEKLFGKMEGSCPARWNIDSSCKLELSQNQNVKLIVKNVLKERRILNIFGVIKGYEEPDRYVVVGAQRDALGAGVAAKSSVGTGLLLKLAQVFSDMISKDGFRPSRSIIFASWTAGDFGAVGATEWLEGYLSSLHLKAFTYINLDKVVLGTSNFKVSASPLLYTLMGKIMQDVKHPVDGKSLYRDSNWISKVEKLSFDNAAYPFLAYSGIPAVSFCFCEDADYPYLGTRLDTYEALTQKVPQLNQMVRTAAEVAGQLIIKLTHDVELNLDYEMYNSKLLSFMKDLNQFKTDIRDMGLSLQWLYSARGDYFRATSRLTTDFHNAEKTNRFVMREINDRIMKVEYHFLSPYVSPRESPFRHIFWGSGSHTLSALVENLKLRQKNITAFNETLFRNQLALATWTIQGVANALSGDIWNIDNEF
Protocol: (§1) Serial dilutions of the Fab were added to plates precoated with recombinant human, cynomolgus monkey, mouse, or rat TfR1. After a short incubation, binding of the Fab was quantified by addition of a fluorescently tagged anti-(H+L) IgG secondary antibody and measurement of fluorescence intensity at 495 nm excitation and 520 nm emission.

[4] = biological target: recombinant rat TfR1 (rat, UniProt Q99376 89-761, limits assumed); test: ELISA, plates precoated with recombinant TfR1
Chain of recombinant rat TfR1 (Q99376 89-761 limits assumed): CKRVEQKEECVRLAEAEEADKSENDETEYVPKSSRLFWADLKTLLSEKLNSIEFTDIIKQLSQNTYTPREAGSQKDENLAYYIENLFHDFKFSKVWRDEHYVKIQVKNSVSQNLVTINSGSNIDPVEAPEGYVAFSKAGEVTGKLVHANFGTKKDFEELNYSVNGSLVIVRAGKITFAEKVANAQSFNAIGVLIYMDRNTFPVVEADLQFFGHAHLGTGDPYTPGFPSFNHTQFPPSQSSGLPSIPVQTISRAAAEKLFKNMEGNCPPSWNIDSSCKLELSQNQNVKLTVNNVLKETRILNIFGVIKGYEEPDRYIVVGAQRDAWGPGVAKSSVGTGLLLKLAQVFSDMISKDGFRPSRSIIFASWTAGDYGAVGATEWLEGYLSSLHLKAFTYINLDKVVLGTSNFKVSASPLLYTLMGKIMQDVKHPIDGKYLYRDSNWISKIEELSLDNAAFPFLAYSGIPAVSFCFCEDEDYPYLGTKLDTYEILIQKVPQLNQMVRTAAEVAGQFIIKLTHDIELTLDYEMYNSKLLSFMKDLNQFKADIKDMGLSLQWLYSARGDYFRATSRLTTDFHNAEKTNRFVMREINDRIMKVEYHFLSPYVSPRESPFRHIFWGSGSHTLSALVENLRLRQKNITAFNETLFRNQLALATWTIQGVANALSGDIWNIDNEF
Protocol: as §1

T1 sequence (P02786 89-760 limits assumed): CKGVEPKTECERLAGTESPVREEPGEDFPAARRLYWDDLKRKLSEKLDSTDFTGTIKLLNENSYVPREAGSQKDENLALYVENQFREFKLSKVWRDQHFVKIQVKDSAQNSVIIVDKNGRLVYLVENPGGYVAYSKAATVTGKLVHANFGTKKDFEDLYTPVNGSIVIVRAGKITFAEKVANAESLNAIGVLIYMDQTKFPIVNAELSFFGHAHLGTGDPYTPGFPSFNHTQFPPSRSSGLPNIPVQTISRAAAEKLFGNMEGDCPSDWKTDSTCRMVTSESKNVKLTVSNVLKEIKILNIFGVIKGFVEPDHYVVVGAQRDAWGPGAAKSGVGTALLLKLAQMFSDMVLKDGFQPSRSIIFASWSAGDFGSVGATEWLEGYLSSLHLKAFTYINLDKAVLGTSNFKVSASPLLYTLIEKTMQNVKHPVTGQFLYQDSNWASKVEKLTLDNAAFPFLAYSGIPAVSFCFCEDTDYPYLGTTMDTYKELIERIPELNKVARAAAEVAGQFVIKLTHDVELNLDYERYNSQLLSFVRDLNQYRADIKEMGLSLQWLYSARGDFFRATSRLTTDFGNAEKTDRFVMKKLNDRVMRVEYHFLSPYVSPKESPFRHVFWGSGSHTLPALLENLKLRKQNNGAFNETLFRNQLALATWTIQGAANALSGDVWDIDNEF

B1: humanized anti-TfR Fab 3A4 VH3/Vκ4 conjugated to DMPK-targeting oligonucleotide ASO300 (Fab, V domains shown)
VH: EVQLVQSGSELKKPGASVKVSCTASGFNIKDDYMYWVRQPPGKGLEWIGWIDPENGDTEYASKFQDRVTVTADTSTNTAYMELSSLRSEDTAVYYCTLWLRRGLDYWGQGTLVTVSS
VL: DIVMTQSPLSLPVTPGEPASISCRSSKSLLHSNGYTYLFWFQQRPGQSPRLLIYRMSNLASGVPDRFSGSGSGTDFTLKISRVEAEDVGVYYCMQHLEYPFTFGGGTKVEIKR
modifications: DMPK-targeting oligonucleotide ASO300 conjugated to the Fab; chain and residue not stated for this example
notes: The oligonucleotide may sit on either chain; also called 3A4 (VH3/Vk4) conjugate; DMPK oligo conjugate
Which EC50 [1] does the source give for B1 here?
Its EC50 is 2.84 nM.

B2: humanized anti-TfR Fab 3M12 VH4/Vκ3 (Fab, V domains shown)
VH: QVQLQESGPGLVKPSQTLSLTCTVTGYSITSGYYWNWIRQPPGKGLEWIGYITFDGANNYNPSLKNRVSISRDTSKNQFSLKLSSVTAEDTATYYCTRSSYDYDVLDYWGQGTTVTVSS
VL: DIQMTQSPSSLSASVGDRVTITCRASQDISNFLNWYQQKPGQPVKLLIYYTSRLHSGVPSRFSGSGSGTDFTLTISSLQPEDFATYYCQQGHTLPYTFGQGTKLEIKR
notes: also called 3M12 (VH4/Vk3); 3M12 VH4/VK3
Does B2 bind [2]?
Result: no binding

Does B2 bind [3]?
Result: no binding

Does B2 bind [4]?
Result: no binding
